Assay results from the supplement of paper PMC9170038.

Test system: MS2 coat protein
Assay: apparent KD of MS2 coat protein; designed switch direction (-1 OFF switch, 1 ON switch): -1; higher = weaker reporter binding
Method in brief: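 Designed RNA switches with common flanks were made on Illumina chips by stalled E. coli RNA polymerase. Titration with SNAP-549-labelled MS2 coat protein doubled from 0.7 or 1.5 nM up to 3 µM. Apparent KD is each design's median over clusters after curve-fitting normalised fluorescence.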

[1] = Eterna round: R95, input ligand: FMN 200 uM
[2] = Eterna round: R95, input ligand: microRNA oligo, concentration not stated
[3] = Eterna round: R95, input ligand: none
[4] = input ligand: microRNA oligo, concentration not stated

Sequence: GUUAGUAUCUAGGAUAUCUAGUACAUAGUAUCUAGAGAAGGAGAUACAUGAGGAUCACCCAUGUUCUGUGAUCU [Exclusion 6 - 2:c] (puzzle: Exclusion 6)
- apparent KD of MS2 coat protein [1]: 53 nM
- apparent KD of MS2 coat protein [2]: 205 nM
- apparent KD of MS2 coat protein [3]: 234 nM

Sequence: ACCAUUUCGGUGGUCUAAGAACAUGAGGAUCACCCAUGUAUCGAGGAUAUCCCAAGCAGACUAUGGGAGAAGGUGAACAGAAGG [Eternabot solution 24] (Eterna round: R96, puzzle: Exclusion NG 3)
- apparent KD of MS2 coat protein (input ligand: FMN 200 uM): 40.1 nM
- apparent KD of MS2 coat protein [4]: 25.6 nM
- apparent KD of MS2 coat protein (input ligand: none): 41.7 nM

Sequence: AGCUGACAAGGAUAUACAUGAGGAUCACCCAUGUUGGUUCAGCGACGAUAGUCGCAAUGUAGAAGGUGUCAGCU [E3/9-C2] (Eterna round: R97, puzzle: Exclusion 3)
- apparent KD of MS2 coat protein (input ligand: FMN 200 uM): 108 nM
- apparent KD of MS2 coat protein (input ligand: none): 282 nM

Sequence: CGCUAGUCAGGAUAUACGAACAUGUCAAAAGACGUGAAGGGACAUGAGGAUCACCCAUGUAGAAGGGACUAGCG [salish99_ex2_r3_012] (puzzle: Exclusion 2)
- apparent KD of MS2 coat protein [1]: 152 nM
- apparent KD of MS2 coat protein [2]: 20 nM
- apparent KD of MS2 coat protein [3]: 28.5 nM

Sequence: GAUUUAGAGCAGGAUAUCAUAGAAAUGUAUGAAUGAGAAGGGCUCACAUGAGGAUCACCCAUGUGGUCCUAGAU [JL Dibiri mod 20] (Eterna round: R96, puzzle: Exclusion 6)
- apparent KD of MS2 coat protein [4]: 21.6 nM

Sequence: AAGACACAUGAGGAUCACCCAUGUGAGGAUAUUCGAUGCUGAGCGUAAGCUUAGUAUCGGAGAAGGUACAUAGG [Salishxclusion 9 - Jieux - Exclusion 1] (Eterna round: R97, puzzle: Exclusion 1)
- apparent KD of MS2 coat protein (input ligand: FMN 200 uM): 77.2 nM
- apparent KD of MS2 coat protein (input ligand: none): 66.6 nM

Sequence: UAAGAUUACCGAGGAUAUGCUGGUUUCUCUUAAGCAGAAGGCGGACUCAACAUGAGGAUCACCCAUGUAAGAAGGGUAUUAGAU [Ex NG1 #10] (Eterna round: R96, puzzle: Exclusion NG 1)
- apparent KD of MS2 coat protein (input ligand: FMN 200 uM): 85.9 nM
- apparent KD of MS2 coat protein [4]: 78.6 nM
- apparent KD of MS2 coat protein (input ligand: none): 116 nM

Sequence: GGUGAAGCAGGAUAUGUAUCGAUAUACAUGAGGAUCACCCAUGUCAUGUUUGAAUUGCAUAUAGAAGGGCUUCACC [Exclusion 5 (FMN-MS2 slide v.3)] (Eterna round: R97, puzzle: Exclusion 5)
- apparent KD of MS2 coat protein (input ligand: FMN 200 uM): 16.4 nM
- apparent KD of MS2 coat protein (input ligand: none): 13.8 nM

Sequence: GACCUAUAGGUAGGAUAUCAUUGCGAUUAGCUAUGAGAAGGACCACAUGAGGAUCACCCAUGUCCUCCAAUUAACCGAAAGGUC [Fiskers ExNg1 - 3] (Eterna round: R96, puzzle: Exclusion NG 1)
- apparent KD of MS2 coat protein (input ligand: FMN 200 uM): 44.9 nM
- apparent KD of MS2 coat protein [4]: 21.9 nM
- apparent KD of MS2 coat protein (input ligand: none): 30.1 nM

Sequence: AUGUGUAUAGUGAGGAUAUUGCCCAGGAAAUAGGGCAAGAAGGCACAUGAGGAUCACCCAUGUGGAUGUUCUGA [Eternabot (L2) Solution 85] (Eterna round: R97, puzzle: Brourd's mod of Exclusion 4)
- apparent KD of MS2 coat protein (input ligand: FMN 200 uM): 412 nM
- apparent KD of MS2 coat protein (input ligand: none): 37.5 nM

Sequence: UAUUAGCAAGCAAAUGGGUACAUGAGGAUCACCCAUGUGCUCGUCUUAUAAGGUACUGUGCCGAAAGUCACGGUACC [mod--Eli2] (Eterna round: R97, puzzle: Sensor, turn-off variant 1)
- apparent KD of MS2 coat protein (input ligand: FMN 200 uM): 23 nM
- apparent KD of MS2 coat protein (input ligand: none): 23.4 nM

Sequence: UACAUGAGGAUCACCCAUGUUUUGUCGUGUAUGGUAUUUAUCUAGGAUAUCAAUGUGUUUAUUUAUGAGAAGGAGAAUAUUAAU [JMF's solution 39] (Eterna round: R96, puzzle: Exclusion NG 3)
- apparent KD of MS2 coat protein (input ligand: FMN 200 uM): 40 nM
- apparent KD of MS2 coat protein [4]: 31.8 nM
- apparent KD of MS2 coat protein (input ligand: none): 35.4 nM

Sequence: CCAAGCUUAUUCAUUAACCACAUGAGGAUCACCCAUGUAUAGGCAAUUAUGACUGGCCCAUCUGGUGCUCGUCUUAU [Sensor-V1 #30] (Eterna round: R97, puzzle: Sensor, turn-off variant 1)
- apparent KD of MS2 coat protein (input ligand: FMN 200 uM): 17 nM
- apparent KD of MS2 coat protein (input ligand: none): 15.9 nM

Sequence: UAUUUGCAAGCGAGAUCCCACAUGAGGAUCACCCAUGUGCUCGUCUUAUAAGGUACUGUGACGAAAGUCACGGUACC [Sensor 3, v1 - 91 v26] (Eterna round: R97, puzzle: Sensor, turn-off variant 1)
- apparent KD of MS2 coat protein (input ligand: FMN 200 uM): 16.5 nM
- apparent KD of MS2 coat protein (input ligand: none): 13.7 nM

Sequence: AUUAUAUAGUAAGGAUAUUGAUUAUUAUUUUAACAUGAGGAUCACCCAUGUAGCCUUAUGUAUAACAAGAAGGUACAUUUAUUA [Title] (Eterna round: R96, puzzle: Exclusion NG 2)
- apparent KD of MS2 coat protein [4]: 44.5 nM

Sequence: GGUUGGCGAGGAUAUACAUGAGGAUCACCCAUGUGACAGAAAAAAGUGAGGAAGAAAAGUAGAAGGCGCUGACG [salish99_ex3_r3_019] (puzzle: Exclusion 3)
- apparent KD of MS2 coat protein [1]: 587 nM
- apparent KD of MS2 coat protein [2]: 44.9 nM
- apparent KD of MS2 coat protein [3]: 37.1 nM

Sequence: UACAUGAGGAUCACCCAUGUUUUGUCGUGUUUGGUACCCGUUUAGGAUAUCGUGUUAUUGGAUCGCGAGAAGGAGAGUAUCUUU [Excl-NG3-LRO08] (Eterna round: R96, puzzle: Exclusion NG 3)
- apparent KD of MS2 coat protein (input ligand: FMN 200 uM): 26.8 nM
- apparent KD of MS2 coat protein [4]: 26 nM
- apparent KD of MS2 coat protein (input ligand: none): 31.7 nM

Sequence: ACAUGAGGAUCACCCAUGUUUAUUGGGUACUAUACUAACAGCAAGGAUAUGCAAAUUUUUUUUACGCAGAAGGUGCAGGAACCC [JR_ExcNG3_Sub069] (Eterna round: R96, puzzle: Exclusion NG 3)
- apparent KD of MS2 coat protein (input ligand: FMN 200 uM): 38.3 nM
- apparent KD of MS2 coat protein [4]: 33.1 nM
- apparent KD of MS2 coat protein (input ligand: none): 52.8 nM

Sequence: ACAUGAGGAUCACCCAUGUGCACGUAAUGGCUCAUGUAGAGAGAGGAUAUGCGUGACGAACGAGCGCAGAAGGCUCAAGACUGG [Deportation 15 - Jieux - Exclusion NG 3] (Eterna round: R96, puzzle: Exclusion NG 3)
- apparent KD of MS2 coat protein (input ligand: FMN 200 uM): 114 nM
- apparent KD of MS2 coat protein [4]: 66.2 nM
- apparent KD of MS2 coat protein (input ligand: none): 73.1 nM

Sequence: CCGGAAAUGAAGGAUAUAGGUGUCGAUAGACUCCUAGAAGGUCAUACAUGAGGAUCACCCAUGUGUCCUACCGG [Fiskers Ex 6 - 76] (puzzle: Exclusion 6)
- apparent KD of MS2 coat protein [2]: 15.6 nM

Sequence: CCUCGACAUGAGGAUCACCCAUGUCAGGAUAUUGUGUUUCGGGUUUUUUACCGUUAGGCAAGAAGGGAUGUGUG [LRO-Excl1-15] (puzzle: Exclusion 1)
- apparent KD of MS2 coat protein [2]: 25.1 nM

Sequence: AACCAGCGAGGAUAUGCUUGCGCGUGUUCUGGUUAUAAUCGACUUGAGGAUCACCCAAGUAGAAGGCGCUGCCG [EX2 #52] (Eterna round: R97, puzzle: Exclusion 2)
- apparent KD of MS2 coat protein (input ligand: FMN 200 uM): 179 nM
- apparent KD of MS2 coat protein (input ligand: none): 64.2 nM

Sequence: GUAAAGUGAGGAUAUGGUAAAUUAAUUAUUUAGUAAUUAAUCCAGAAGGCACAUGAGGAUCACCCAUGUAAAUG [Mat - Exclusion 4 - D95] (puzzle: Exclusion 4)
- apparent KD of MS2 coat protein [2]: 32.1 nM

Sequence: UUAUUAUAUGAAGGAUAUACUUAACAUGAGGAUCACCCAUGUGGUGUUGUGAGUGAGUGAGUUUAGUAGAAGGUCAAGUAUUUU [JMF's solution 51] (Eterna round: R96, puzzle: Exclusion NG 2)
- apparent KD of MS2 coat protein (input ligand: FMN 200 uM): 417 nM
- apparent KD of MS2 coat protein [4]: 494 nM
- apparent KD of MS2 coat protein (input ligand: none): 341 nM

Sequence: UGUGCGUAUGUGAGGAUAUGCUGGUCCUUGGCUCGGCAGAAGGCACAUGAGGAUCACCCAUGUGGUGUCGUACU [salish99_Bmod_ex4_067] (puzzle: Brourd's mod of Exclusion 4)
- apparent KD of MS2 coat protein [2]: 75.6 nM

Sequence: UUGUUUUUCACAGGAUAUCGCCUCUUAUUACAUGAGGAUCACCCAUGUUUAUUUUGUUACAUGUUCGAGAAGGGUGUAGUCUUU [JR_ExcNG2_Sub047] (Eterna round: R96, puzzle: Exclusion NG 2)
- apparent KD of MS2 coat protein (input ligand: FMN 200 uM): 586 nM
- apparent KD of MS2 coat protein [4]: 368 nM
- apparent KD of MS2 coat protein (input ligand: none): 475 nM

Sequence: GACUUCUGAGGAUAUACAUAGAUUUACAUGAGGAUCACCCAUGUUCCUCUAUGUAUAAAUGUAGAAGGCAGAAGAA [Mat - Exclusion 5 - JL Mod - D64] (Eterna round: R97, puzzle: Exclusion 5)
- apparent KD of MS2 coat protein (input ligand: FMN 200 uM): 66.8 nM
- apparent KD of MS2 coat protein (input ligand: none): 15.5 nM

Sequence: GUGUAGGUAGGAUAUACAUGAGGAUCACCCAUGUGAAUAAGAUAGAAUAAGAUAAAGUGUAGAAGGACUAGUGU [Excluse me!!! 14 - Jieux - Exclusion 3] (puzzle: Exclusion 3)
- apparent KD of MS2 coat protein [2]: 38.7 nM

Sequence: GGUACUAACACGAAAGUGUUAGUACAAUAAGCUUGUGUUACAUGAGGAUCACCCAUGUCCUCAUAAGCUCGUCUUAU [Mat - Sensor v3 - Turn-off var 2 - D52] (puzzle: Sensor v3, turn-off variant 2)
- apparent KD of MS2 coat protein [1]: 112 nM
- apparent KD of MS2 coat protein [2]: 38.8 nM
- apparent KD of MS2 coat protein [3]: 126 nM

Sequence: AGCCUACAUGAGGAUCACCCAUGUCAGGAUAUCUCGCGGCGUGUCAAGUUCACACUGCAGAGAAGGGACUCGGG [Edsoriri] (puzzle: Exclusion 1)
- apparent KD of MS2 coat protein [2]: 51.4 nM

Sequence: GCCGAAAGCGUAGGAUAUCGAAUAAAGCGGAAACGCAAGACAUGAGGAUCACCCAUGUGUCCGGACGAGAAGGGCGAAAGCGGC [EXNG2 V2 a] (Eterna round: R96, puzzle: Exclusion NG 2)
- apparent KD of MS2 coat protein (input ligand: FMN 200 uM): 33.4 nM
- apparent KD of MS2 coat protein [4]: 27.1 nM
- apparent KD of MS2 coat protein (input ligand: none): 34.3 nM

Sequence: GGGUGCAGGCUGAGGUCCUACAUGAGGAUCACCCAUGUGGUCCGGUGACGUGAGUCACCGGACUUGGCUCGUCUUGU [salish99_S_TOV1_R5_010] (Eterna round: R97, puzzle: Sensor, turn-off variant 1)
- apparent KD of MS2 coat protein (input ligand: FMN 200 uM): 41.5 nM
- apparent KD of MS2 coat protein (input ligand: none): 50.5 nM

Sequence: AUAGUAUUGCAAGGAUAUCGAUUUAGUUUGUUUCGAGAAGGUGCUUUAGUUUAUACCUCUUGUUUACAUGAGGAUCACCCAUGU [JR_ExcNG1_Sub049] (Eterna round: R96, puzzle: Exclusion NG 1)
- apparent KD of MS2 coat protein (input ligand: FMN 200 uM): 18.5 nM
- apparent KD of MS2 coat protein [4]: 19.2 nM
- apparent KD of MS2 coat protein (input ligand: none): 27.5 nM
